From US20220177587A1, “METHODS AND USES OF VARIANT CD80 FUSION PROTEINS AND RELATED CONSTRUCTS” (Alpine Immune Sciences, Inc., priority 2018, published 2022)
Positions count from the first letter of the chain named. Names and notes keep the numbering of the source. One block for each molecule: values may come before it.

Legend:
CD28 [1] = biological target: T1, CD28 (Homo sapiens, UniProt P10747); assay: Flow binding to Jurkat/IL2 reporter cells (CD28); parameters: host or cells: Jurkat cells expressing an IL-2-luciferase reporter
Description: (§1) Binding of selected immunomodulatory fusion proteins to cognate binding partners was assessed. […] Cells were sorted in a Bio-Rad S3 Cell Sorter (Bio-Rad Corp., USA) to >98% purity. Jurkat/IL2 reporter cells, which endogenously express CD28, were used to detect binding to CD28.
(§2) For staining and analysis by flow cytometry, 100,000 cells of appropriate transfected cells were plated in 96-well round bottom plates. Cells were spun down and resuspended in staining buffer (phosphate buffered saline (PBS), 1% bovine serum albumin (BSA), and 0.1% sodium azide) for 20 minutes to block non-specific binding. […] Primary staining was performed on ice for 45 minutes, before washing cells in staining buffer twice. Phycoerythrin (PE)-conjugated anti-human Fc (Jackson ImmunoResearch, USA) was diluted 1:150, added to cells and incubated another 30 minutes on ice. Cells were then washed twice with 150 μL/well stain buffer, fixed in 2% formaldehyde/PBS, and analyzed on Intellicyt flow cytometer (Intellicyt Corp., USA). PE Mean Fluorescence Intensity (MFI) was calculated for each cell type with FlowJo Version 10 software (FlowJo LLC, USA).
(§3) Binding assays were carried out to assess the specificity and affinity of multivalent proteins to cell-expressed CTLA-4, CD28, and PD-L1 counter structures.
(§4) The EC50 for binding also was determined.

CD28 [2] = biological target: T1, CD28; assay: Jurkat/IL2 + CHO/OKT3 +/- PD-L1 reporter assay: PD-L1-dependent CD28 costimulation; format: cell-based; parameters: host or cells: Jurkat cells expressing an IL-2-luciferase reporter; settings: Jurkat/IL2 + CHO/OKT3/PD-L1
Description: Jurkat cells were then plated at 50 μL/well for a total of 100,000 cells per well.
To each well, 25 μL of test protein was added to the Jurkat cells. […] The Jurkat cells with test or control proteins were incubated for 15 minutes at room temperature. CHO-derived artificial antigen presenting cells (aAPC) displaying transduced cell surface anti-CD3 single chain Fv (OKT3) (i.e., no PD-L1), or OKT3 and PD-L1 (i.e., +PD-L1), were brought to 0.8×10^6 cells/mL, and 25 μL of cells were added to each well, bringing the final volume of each well to 100 μL. […] Jurkat cells and CHO cells were incubated for 5 hours at 37 degrees Celsius in a humidified 5% CO2 incubation chamber. Plates were then removed from the incubator and acclimated to room temperature for 15 minutes. 100 μL of a cell lysis and luciferase substrate solution (BioGlo luciferase reagent, Promega) were added to each well and the plates were incubated on an orbital shaker for 10 minutes. Luminescence was measured with a 1 second per well integration time using a BioTek Cytation luminometer, and a relative luminescence value (RLU) was determined for each test sample.

huPD-L1 = huPD-L1 (Homo sapiens, UniProt Q9NZQ7); assay: Flow binding to CHO cells stably expressing PD-L1; parameters: huCTLA4 and huPD-L1, full-length mammalian surface expression constructs were generated; expressed in transfected cells; host or cells: CHO cells, lentiviral transduction, sorted to >98% purity; settings: CHO cells stably expressing PD-L1
Description: as §1, §2, §3, §4

huCTLA4 = huCTLA4 (Homo sapiens, UniProt P16410); assay: Flow binding to CHO cells stably expressing CTLA4; parameters: huCTLA4 and huPD-L1, full-length mammalian surface expression constructs were generated; expressed in transfected cells; host or cells: CHO cells, lentiviral transduction, sorted to >98% purity; settings: Table E14; CHO cells stably expressing CTLA4; 33.3 nM
Description: as §1, §2, §3, §4

[3] = Table E10, 33.3 nM, Jurkats (CD28)
[4] = Table E19, Jurkats (CD28), 33.3 nM
[5] = Table E11, Jurkats (CD28), 33.3 nM
[6] = Table E25, linker variants, 33.3 nM, Jurkats (CD28)
[7] = Table E26, linker variants, 5.0 nM
[8] = Table E23, CD80 IgV-Fc (inert) at 33.3 nM, Jurkat (CD28)
[9] = Table E23, CD80 IgV-Fc (inert) at 33.3 nM

huPD-L1, sequence (Q9NZQ7 19-290): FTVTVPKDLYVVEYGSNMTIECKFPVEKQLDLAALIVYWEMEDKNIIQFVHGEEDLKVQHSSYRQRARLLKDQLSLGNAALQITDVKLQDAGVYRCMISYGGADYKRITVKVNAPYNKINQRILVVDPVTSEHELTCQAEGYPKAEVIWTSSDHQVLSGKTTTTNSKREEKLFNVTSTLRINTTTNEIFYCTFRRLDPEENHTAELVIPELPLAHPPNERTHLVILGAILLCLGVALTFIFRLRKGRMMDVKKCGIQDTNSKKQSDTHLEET
huCTLA4, sequence (P16410 36-223): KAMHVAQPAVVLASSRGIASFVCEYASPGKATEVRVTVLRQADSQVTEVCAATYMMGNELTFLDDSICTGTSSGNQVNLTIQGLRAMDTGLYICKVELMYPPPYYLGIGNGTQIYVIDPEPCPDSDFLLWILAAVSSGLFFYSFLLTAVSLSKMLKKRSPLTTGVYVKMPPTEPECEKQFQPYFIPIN

B2: E35D/N48K/V68M/K89N (protein)
chain: VIHVTKEVKEVATLSCGHNVSVEELAQTRIYWQKDKKMVLTMMSGDMKIWPEYKNRTIFDITNNLSIMILALRPSDEGTYECVVLKYENDAFKREHLAEVTLSVKAD
- CD28 MFI at 33.3 nM (CD28 [1]; [4]): 1534
- PD-L1 MFI at 33.3 nM (huPD-L1; Table E19, 33.3 nM): 17425

B5: M47L/L85Q (protein)
chain: B2 chain with D35E, M47L, K48N, M68V, L85Q, N89K
- CD28 MFI at 33.3 nM (CD28 [1]; [4]): 88.1
- Relative Luciferase Units (RLU), CD80 Conc 5.0 nM (CD28 [2]; Table E21, CD80 Conc 5.0 nM): 416 RLU
- PD-L1 MFI at 33.3 nM (huPD-L1; Table E19, 33.3 nM): 5801

B7: A26E/E35D/V68M/A71G (protein)
chain: B2 chain with A26E, K48N, A71G, N89K
- CD28 MFI at 33.3 nM (CD28 [1]; Table E20, Jurkats (CD28), 33.3 nM): 135
- Relative Luciferase Units (RLU), CD80 Conc 5.0 nM (CD28 [2]; Table E22, CD80 Conc 5.0 nM): 839 RLU
- PD-L1 MFI at 33.3 nM (huPD-L1; Table E20, 33.3 nM): 12611

B8: V22D/E24D/E35D/M47L/V68M (protein)
chain: VIHVTKEVKEVATLSCGHNVSDEDLAQTRIYWQKDKKMVLTMMSGDLNIWPEYKNRTIFDITNNLSIMILALRPSDEGTYECVVLKYEKDAFKREHLAEVTLSVKADFPTPSISDFETPTSNIRRIICSTSGGFPEPHLSWLENGEELNAINTTVSQDPETELYAVSSKLDFNMTTNHSFMCLIKYGHLRVNQTFNWNTTKQEHFPDN
modifications: CD80 v383 ECD
- CD28 MFI at 33.3 nM (CD28 [1]; [5]): 1254
- Relative Luciferase Units (RLU), CD80 Cone 5.0 nM (CD28 [2]; Table E13, 5.0 nM): 974 RLU
- PD-L1 MFI at 33.3 nM (huPD-L1; Table E11, 33.3 nM): 15418

B11: E35D/M47V/N48K/V68M/K89N GS(G4S)3 (protein, UniProt P33681 35-288, looked up, variant E35D M47V N48K V68M K89N)
T-lymphocyte activation …: VIHVTKEVKEVATLSCGHNVSVEELAQTRIYWQKDKKMVLTMMSGDVKIWPEYKNRTIFDITNNLSIMILALRPSDEGTYECVVLKYENDAFKREHLAEVTLSVKADFPTPSISDFEIPTSNIRRIICSTSGGFPEPHLSWLENGEELNAINTTVSQDPETELYAVSSKLDFNMTTNHSFMCLIKYGHLRVNQTFNWNTTKQEHFPDNLLPSWAITLISVNGIFVICCLTYCFAPRCRERRRNERLRRESVRPV
modifications: GS(G4S)3 linker
- CD28 MFI at 33.3 nM (CD28 [1]; [6]): 2109
- Relative Luciferase Units (RLU), CD80 Conc 5.0 nM (CD28 [2]; [7]): 1400 RLU

B13: E35D/M47LN68M/A71G/L85Q/D90G (protein, UniProt P33681 35-288, looked up, variant E35D M47L V68M A71G L85Q D90G)
T-lymphocyte activation …: B11 T-lymphocyte activation … with V47L, K48N, A71G, L85Q, N89K, D90G
- CD28 MFI at 33.3 nM (CD28 [1]; Table E14, Jurkats (CD28), 33.3 nM): 1400
- CTLA4 MFI at 33.3 nM (huCTLA4): 10332

B14: H18Y/E35D/V68M/L85M/R94Q (protein, UniProt P33681 35-288, looked up, variant H18Y E35D V68M L85M R94Q)
T-lymphocyte activation …: B11 T-lymphocyte activation … with H18Y, V47M, K48N, L85M, N89K, R94Q
- CD28 MFI at 33.3 nM (CD28 [1]; [5]): 14
- CD28 MFI at 33.3 nM (CD28 [1]; Table E16, consensus variants, Jurkats (CD28), 33.3 nM): 962
- Relative Luciferase Units (RLU), CD80 Cone 5.0 nM (CD28 [2]; Table E13, 5.0 nM): 195 RLU
- Relative Luciferase Units (RLU), CD80 Cone 5.0 nM (CD28 [2]; Table E17, consensus variants, 5.0 nM): 2215 RLU
- PD-L1 MFI at 33.3 nM (huPD-L1; Table E11, 33.3 nM): 14410
- PD-L1 MFI at 33.3 nM (huPD-L1; Table E16, consensus variants, 33.3 nM): 9283

B17: H18V/E35D/M47V/V68M/A71G/D90G (protein, UniProt P33681 35-288, looked up, variant H18V E35D M47V V68M A71G D90G)
T-lymphocyte activation …: B11 T-lymphocyte activation … with H18V, K48N, A71G, N89K, D90G
- CD28 MFI at 33.3 nM (CD28 [1]; [8]): 2115
- Relative Luciferase Units (RLU), CD80 Conc 5.0 nM (CD28 [2]; Table E24, 5.0 nM): 854 RLU
- PD-L1 MFI at 33.3 nM (huPD-L1; [9]): 43588

Second part, the molecule after the results:

- CD28 MFI at 33.3 nM (CD28 [1]; [3]): 44.6
- Relative Luciferase Units (RLU), CD80 Cone 5.0 nM (CD28 [2]; Table E12, 5.0 nM): 914 RLU
- PD-L1 MFI at 33.3 nM (huPD-L1; Table E10, 33.3 nM): 2614
B1: E35D/L97R (protein)
chain: B2 chain with K48N, M68V, N89K, L97R

- CD28 MFI at 33.3 nM (CD28 [1]; [3]): 582
- Relative Luciferase Units (RLU), CD80 Cone 5.0 nM (CD28 [2]; Table E12, 5.0 nM): 1731 RLU
- PD-L1 MFI at 33.3 nM (huPD-L1; Table E10, 33.3 nM): 3031
B3: E35D/N48K/L72V (protein)
chain: B2 chain with M68V, L72V, N89K

- CD28 MFI at 33.3 nM (CD28 [1]; [3]): 413
- Relative Luciferase Units (RLU), CD80 Cone 5.0 nM (CD28 [2]; Table E12, 5.0 nM): 2116 RLU
- PD-L1 MFI at 33.3 nM (huPD-L1; Table E10, 33.3 nM): 5660
B4: E35D/M47V/N48K/L85M (protein)
chain: B2 chain with M47V, M68V, L85M, N89K

- CD28 MFI at 33.3 nM (CD28 [1]; [4]): 2119
- Relative Luciferase Units (RLU), CD80 Conc 5.0 nM (CD28 [2]; Table E21, CD80 Conc 5.0 nM): 817 RLU
- PD-L1 MFI at 33.3 nM (huPD-L1; Table E19, 33.3 nM): 21603
B6: E35D/D46V/M47V/V68M/K89N (protein)
chain: B2 chain with D46V, M47V, K48N

- CD28 MFI at 33.3 nM (CD28 [1]; [5]): 403
- Relative Luciferase Units (RLU), CD80 Cone 5.0 nM (CD28 [2]; Table E13, 5.0 nM): 1137 RLU
- PD-L1 MFI at 33.3 nM (huPD-L1; Table E11, 33.3 nM): 8641
B9: E35D/D46E/M47L/V68M/T79M/L85M (protein, UniProt P33681 35-288, looked up, variant E35D D46E M47L V68M T79M L85M)
T-lymphocyte activation …: B11 T-lymphocyte activation … with D46E, V47L, K48N, T79M, L85M, N89K

- CD28 MFI at 33.3 nM (CD28 [1]; [5]): 14
- Relative Luciferase Units (RLU), CD80 Cone 5.0 nM (CD28 [2]; Table E13, 5.0 nM): 1086 RLU
- PD-L1 MFI at 33.3 nM (huPD-L1; Table E11, 33.3 nM): 18600
B10: E35D/M47L/V68M/E95V/L97Q (protein, UniProt P33681 35-288, looked up, variant E35D M47L V68M E95V L97Q)
T-lymphocyte activation …: B11 T-lymphocyte activation … with V47L, K48N, N89K, E95V, L97Q
modifications: Fc fusion

- CD28 MFI at 33.3 nM (CD28 [1]; [8]): 3227
- Relative Luciferase Units (RLU), CD80 Conc 5.0 nM (CD28 [2]; Table E24, 5.0 nM): 963 RLU
- PD-L1 MFI at 33.3 nM (huPD-L1; [9]): 64919
B12: H18Y/E35D/M47V/V68M/A71G (protein, UniProt P33681 35-288, looked up, variant H18Y E35D M47V V68M A71G)
T-lymphocyte activation …: B11 T-lymphocyte activation … with H18Y, K48N, A71G, N89K

- CD28 MFI at 33.3 nM (CD28 [1]; [8]): 6911
- Relative Luciferase Units (RLU), CD80 Conc 5.0 nM (CD28 [2]; Table E24, 5.0 nM): 821 RLU
- PD-L1 MFI at 33.3 nM (huPD-L1; [9]): 51521
B15: H18Y/A26P/E35D/M47V/V68M/A71G (protein, UniProt P33681 35-288, looked up, variant H18Y A26P E35D M47V V68M A71G)
T-lymphocyte activation …: B11 T-lymphocyte activation … with H18Y, A26P, K48N, A71G, N89K

- CD28 MFI at 33.3 nM (CD28 [1]; [6]): 267
- Relative Luciferase Units (RLU), CD80 Conc 5.0 nM (CD28 [2]; [7]): 1592 RLU
- PD-L1 MFI at 33.3 nM (huPD-L1; Table E25, linker variants, 33.3 nM): 22596
B16: E35D/D46V/M47L/V68M/L85Q/E88D GS(G4S)3 (protein, UniProt P33681 35-288, looked up, variant E35D D46V M47L V68M L85Q E88D)
T-lymphocyte activation …: B11 T-lymphocyte activation … with D46V, V47L, K48N, L85Q, E88D, N89K
modifications: GS(G4S)3 linker
